Data as given in paper doi:10.1101/2025.06.12.659326.

Target: dynein light intermediate chain 2 (LIC2)
Experiment: anti-HA IP of LIC2-HA, GFP blot
Settings: reference: GFP-WT OCLN; sites S490

occludin (OCLN) (from UniProt Q16625) GFP-S490A
other: reduction vs WT: 25%

occludin (OCLN) (from UniProt Q16625) GFP-S490D
other: reduction vs WT: 25%
